± gives the uncertainty stated by the source.

The data set can be described thus: amyloid nucleation score (Sup35N fusion, yeast selection) (log enrichment); library NNK1; higher = more nucleation; inactive = no reads after selection. The method in brief:
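Yeast lacking psi expressed peptides of 20 random codons fused to Sup35N, received 100 μM copper sulfate for 24 hours, and were then grown for 7 days at 30°C on medium lacking adenine and uracil. Illumina sequencing of input and output plasmid inserts provided the reads. Nucleation scores are DiMSum log enrichments of output over input, centred on the mode of non-aggregating sequences. Any sequence with under 100 input reads was excluded.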
RYLVVQLRMGLYLFAFKDPD: the amyloid nucleation score is -0.686 ± 0.42.
Then RYSSPSRGTAMFSLLYLYVY, with 0.694 ± 0.97; and SAFVDWSAGSSNDFFFF, with -0.577 ± 0.94.
As for SAKNTGYMWMLIWLG, the amyloid nucleation score is 0.204 ± 0.79.
Then SALGFFRAYQSIKRTLFRRR, with -0.064 ± 0.56; and SALIAMYYHSSGTMWIQYFC, with 0.145 ± 0.83.
Then SALIILMHVV, with -0.761 ± 1.2.
Then SALNSSRGKFICSRRCHGEE, with 0.078 ± 0.23; and SALWRNFSALRSNWK, with -0.325 ± 0.34; and SANCIWFFL, with 7.105 ± 0.071.
As to SARQVSGLTWVM, the amyloid nucleation score was determined as 2.52 ± 0.11.
Then SARSWDLQMCFSCLYR, with 7.28 ± 0.08; and SASAISTPGGCYDGYLFDSQ, with -0.457 ± 0.61; and SATNCRTGKDCRERGHTLGL, with 0.628 ± 0.33.
Under SAVQFG stands -0.539 ± 0.54; under SAVVAVPVPYRDHQCPLPRV, 1.13 ± 0.52.
As for SAWWIGMMWCSSSSYLEIGG, the amyloid nucleation score was -0.586 ± 0.39.
Then SCFPLLRQFAGWLSWSRT, with 2.28 ± 0.18.
Consider SCFVSSSAIPWVIHSKFDLG, for which the amyloid nucleation score stood at 0.143 ± 0.55.
Under SCGLYFAGVEVGGAVSLCKG stands 0 ± 0.48.
Under SCHIKK stands 0.12 ± 0.39; under SCIWIWICNHSMFGMETGLG, 4.12 ± 0.1; under SCLCYEDRSLHGYWNMSYAQ, 0.938 ± 0.49.
Under SCLMLGTGGETLRSRPPRKV stands -1.45 ± 1.1.
SCLWGMRLKL: the amyloid nucleation score is -0.366 ± 0.8.
Under SCMPHYEFMWRGAQAPWGLD stands 0.183 ± 0.5; under SCPVLHAVPNYCAKALLSLR, -0.794 ± 0.64.
Then SCQIGLPVLTYRTATVGHKS, with 0.06 ± 1; and SCTASMASPNLEF, with “inactive”.
SCYVLVMYCYDMSFCDTLCE displayed an amyloid nucleation score of 0.024 ± 0.47.
As for SDAITRVIRHMNPFCLTALL, the amyloid nucleation score is -0.928 ± 0.95.
As for SDDLFVNFSMSVWFLKVSLR, the amyloid nucleation score came out at 0.515 ± 0.34.
As to SDDLRMHTHGGGYSGFWKGY, the amyloid nucleation score entry is “inactive”.
Then SDFAYCRCNLSVYRGMILTQ, with 0.064 ± 0.25; and SDFQRE, with 3.91 ± 0.099.
Under SDGASPFRWCFHSLRMVSAR stands -0.647 ± 1.1; under SDGQNRTTMTYFPSVGWVSS, -1.98 ± 2.7; under SDLCSLLASQRFLRRSGYKL, “inactive”.
Under SDLLCLLVKDIIYFFVYLHS stands 1.96 ± 0.53; under SDVGLGNKKSWGVRAVCLDE, 0.452 ± 1.2; under SDYTLEGLIVFPCCVLLHVR, 0.381 ± 0.39.
SECSINRWF registered an amyloid nucleation score of 0.965 ± 0.76.
Under SEDVLIPAGRCPL stands 0.845 ± 0.7; under SEGWHGPGARVCLVFKNSRV, 0.286 ± 0.61; under SEICLLVSSKSGHDAQSTIS, -0.011 ± 1.2.
Then SELEIA, with “inactive”.
In the case of SELPVTGWLLIFLGELTWS, the amyloid nucleation score is -0.88 ± 1.3.
With SELYLFSSRGIYQSTRLRLR, the amyloid nucleation score is -0.147 ± 0.81.
Then SEMLSLKIGQGTVTPFNFWM, with -0.09 ± 1.2.
SEPEKG yielded an amyloid nucleation score of -0.463 ± 0.43.
Then SESYEFVVHLHMESLRKLN, with -0.245 ± 0.71; and SETYSSVAWRTMVVAAELVD, with 0.822 ± 0.95.
Then SEYLASMAVTRFLGIGWMNS, with 0.548 ± 0.57.
Then SFCLAVGPNLMTIGICMLQQ, with “inactive”; and SFCVFLMDMSRIGPETLSEW, with 4.95 ± 0.076; and SFDRLMCRAM, with 0.688 ± 0.88.
With SFEKKSVPNSANLGATVLPN, the amyloid nucleation score is 0.196 ± 0.38.
Under SFILCGISRSYQMLLMTRYL stands 6.09 ± 0.068.
Then SFLDMSTKVEYESIWTSTVA, with 0.568 ± 0.45.
Then SFNWPGFPDCFGPFRAVFIS, with -0.61 ± 1.1.
In turn, SFNYRIAFFSRYRPYMGSLG returned an amyloid nucleation score of 1.76 ± 0.37.
Under SFRCDVD stands -0.217 ± 0.55.
Substance SFRFNGGTFVHSSKTKP registered an amyloid nucleation score of 0.441 ± 0.3.
In turn, SFRIVLLPPF registered an amyloid nucleation score of 2.64 ± 0.26.
Under SFSVSLTTYVYYFICHYAGI stands 1.96 ± 0.13.
For SFSYLIFTTVLLVWW, the amyloid nucleation score turned out to be 0.549 ± 0.34.
Under SFTWFVTAANYKW stands 1.8 ± 0.35; under SFVLGYSFLRKSCWFNVVTL, “inactive”; under SFVWLR, 2.67 ± 0.37.
Then SFWWSDATMFEFVKGSRSGK, with “inactive”; and SFYQAYYVACCKYNVEY, with 5.96 ± 0.063; and SGCLLSDGEF, with 0.046 ± 0.32.
Then SGCVQDCSLKRIFLMPDKAL, with -1.03 ± 0.55; and SGEVLRPFAVLC, with -0.061 ± 0.3; and SGFIEVYVTIRFEFLYFHTP, with 0.131 ± 0.18.
SGGCMDSKLSAVG registered an amyloid nucleation score of 0.894 ± 0.51.
Under SGHFILHGFYFCYKKCALIY stands 1.06 ± 0.81; under SGILNAKLNSIGIEKSYAGF, -2.07 ± 2.4; under SGKCIFSFE, -0.065 ± 0.34.
Under SGKGFFDKSKFLVVMRGRTR stands 0.06 ± 0.39; under SGKGMPNMNIPFHMWYQICY, 0.001 ± 0.33; under SGKSNSKPALEYYVSFFIDL, -0.52 ± 0.55.
Under SGNGRRWSVLTDLAMLLLWL stands -0.316 ± 0.41; under SGRGWEAYIYCWVRLVRLVW, -0.463 ± 0.35.
On to SGSVTVCGIATTPCNMGDRK, for which the amyloid nucleation score came to 0.405 ± 0.79.
Under SGSWNMCNHVRVNCYAIDKV stands 0.167 ± 0.3; under SGWRSHKLLVSSSCMNARSY, -0.837 ± 0.48.
SGYLVSSELREFQ had an amyloid nucleation score of 4.28 ± 0.11.
Then SGYTGDDFQLKVEG, with -0.307 ± 0.39; and SGYVNFHL, with “inactive”; and SHASSSSSGCAYQSLVIWIN, with 4.45 ± 0.081.
Then SHATFRVWHTVVVAV, with -0.031 ± 0.34; and SHENSRSNNISSHQP, with -0.513 ± 0.34; and SHNEG, with 1.34 ± 0.41.
Then SHTWKGTSCAFAMHAQRGSQ, with “inactive”; and SHVEVDEEQVFSMSMVPTGE, with -0.106 ± 0.46.
With SHVFAIRT, the amyloid nucleation score was determined as 0.574 ± 0.77.
Under SIFLSNILNDTWFLSALSCM stands -1.41 ± 0.53.
Then SIGCIYRSSKSGDVSISY, with -0.057 ± 0.37; and SIGYMNLDRVI, with -0.944 ± 0.39; and SIHVVVTQLALISLLNVKSV, with “inactive”.
Under SILCIF stands 0.338 ± 1.2; under SILFATAFMPVGLRLNDVLS, -0.003 ± 0.46; under SILKIALTH, -1.71 ± 1.4.
In turn, SIRTVSLLR had an amyloid nucleation score of -0.859 ± 0.42.
In the case of SITVKKES, the amyloid nucleation score amounted to 0.254 ± 0.62.
Under SIWSGMLTGCFRLRSITWHN stands 0.908 ± 0.24; under SIYET, 0.524 ± 0.49.
On to SIYSRGSVLANPCSFYAEVR, for which the amyloid nucleation score entry is “inactive”.
Under SKARKIWYAWLVTPPMRQTE stands 0.667 ± 0.3.
As for SKCVSIMAS, the amyloid nucleation score result was “inactive”.
The substance SKESKSSEARLLIR came in with an amyloid nucleation score of -1.39 ± 1.3.
Under SKIESHFWLVFNIRGSYNKA stands 7.298 ± 0.046; under SKILGISKVNCGALL, -1.82 ± 1.8; under SKLIHYTSFLDYASSGEWKW, 2.81 ± 0.17.
Then SKMILEV, with “inactive”.
Under SKSLFIIGTVPDRS stands -0.467 ± 0.52; under SKVIESDSVCYILHRFKNQC, 1.09 ± 0.17; under SKVSVCNPSSLGSRVGGLAN, “inactive”.
SKYDLISRANVLFVSANYRH came in with an amyloid nucleation score of 0.511 ± 0.76.
Then SLACRVGKYNHSYLSSLV, with 0.583 ± 0.4; and SLAPLHLFERMGGRS, with 0.532 ± 0.86; and SLAWSRMRCKFWSVSPSAFP, with -0.352 ± 0.49.
Under SLCHAFYSVNNLAFCHSFTP stands 6.539 ± 0.061; under SLDLL, -0.244 ± 0.46.
Under SLILG stands 0.083 ± 0.3.
The substance SLMKELKF returned an amyloid nucleation score of -0.034 ± 0.73.
Then SLNVVLFCRPTGVCSHGIGW, with 1.91 ± 0.26.
Under SLQFLSKPHLLRESVSESVD stands 0.381 ± 0.35; under SLSMFLLTILTCYDGFIDIW, -0.372 ± 0.25.
Then SLVLSYRVASNIKNPMTLDY, with 1.24 ± 0.15.
SLWAYNPV: the amyloid nucleation score was found to be 2.04 ± 0.38.
Under SLWTLWGFSFGDT stands -0.458 ± 0.47.
Under SLYTKLAVPLGKWRIGYRLT stands 0.46 ± 0.58.
Then SMIDFIRSFLYHSY, with -1.1 ± 0.5; and SMMYKVSFGGGVFVLKLLVK, with 0.266 ± 0.3; and SMVSFII, with -0.278 ± 0.72.
In the case of SNAIDRAHPYRFGFCVNDVQ, the amyloid nucleation score was -0.279 ± 0.47.
Then SNCFGSSIGNYFRYMFVAYW, with 1.86 ± 0.47.
Then SNDCRMLWMIWKTGSACLDP, with 0.271 ± 0.43.

(Values after the supplement of paper PMC12042874.)
